The supplement of paper PMC9170038

System: MS2 coat protein
Test: apparent KD of MS2 coat protein; designed switch direction (-1 OFF switch, 1 ON switch): 1; higher = weaker reporter binding
Method in brief: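 Designed RNA switches with common flanks were made on Illumina chips by stalled E. coli RNA polymerase. Titration with SNAP-549-labelled MS2 coat protein doubled from 0.7 or 1.5 nM up to 3 µM. Apparent KD is each design's median over clusters after curve-fitting normalised fluorescence.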

[1] = Eterna round: R95, input ligand: FMN 200 uM
[2] = Eterna round: R95, input ligand: microRNA oligo, concentration not stated
[3] = Eterna round: R95, input ligand: none
[4] = input ligand: microRNA oligo, concentration not stated

Sequence | apparent KD of MS2 coat protein [1] [nM] | apparent KD of MS2 coat protein [2] [nM] | apparent KD of MS2 coat protein [3] [nM] | apparent KD of MS2 coat protein (input ligand: FMN 200 uM) [nM] | apparent KD of MS2 coat protein [4] [nM] | apparent KD of MS2 coat protein (input ligand: none) [nM]
AACAAUCUAUCUGAGGAUAUCAUGAAAUAAACAUGAGGAUCACCCAUGUGCAGGAAUACUGCAUAUGAGAAGGCAGAUAGAUUGA [salish99_ss2_r3_042] (puzzle: Same State 2) | 86 | 1040 | 4050 | – | – | –
AACAAUCUAUCUGAGGAUAUCAUGAUAAUAACAUGAGGAUCACCCAUGUGCAGGAAAACUGCAUAUGAGAAGGCAGAUAGAUUGG [Mat - Same State 2 - Mod - D20] (puzzle: Same State 2) | 100 | 29.4 | 26.5 | – | – | –
AACAAUCUAUUUGAGGAUAUCAUGAAAUAAACAUGAGGAUCACCCAUGUGCAGGAAAACUGCAUAUGAGAAGGCAGAUAGAUUGA [salish99_ss2_r3_025] (puzzle: Same State 2) | 25.4 | 30.2 | 24.1 | – | – | –
AACCCACAUGAGGAUCACCCAUGUGUCUGAGGCACAGGAUAUCGACAGGCAAGACACCUGCGAGAAGGGUGACCUC [Same State 1 - Mod of Vinnie Diatater v.1] (puzzle: Same State 1) | 18.4 | 8.17 | 27.9 | – | – | –
AAGAAACAUGAGGAUCACCCAUGUAGAAAUAUGGGAGGAUAUACGAAGACGAAAGUCAAAGUAGAAGGCCUAAAAG [Mat - Same State 1 - Eli mod - D107] (Eterna round: R96, puzzle: Same State 1) | – | – | – | 23.4 | 54 | 110
AAGAAACAUGAGGAUCACCCAUGUCGAAAUAACACAGGAUAUCGCACGACUACGGUGCGGCGAGAAGGGUGAGGAA [Estere] (puzzle: Same State 1) | 54.7 | 78.4 | 94.7 | – | – | –
AAGAGGUCCGCAGGAUAUACCCGGGCUCGCCGGGUAGAAGGGUGAACCUCAUAACCCACCACACACAUGAGGAUCACCCAUGUA [Tedile] (Eterna round: R96, puzzle: Same State NG 1) | – | – | – | 113 | 219 | 4.57
AAUAAACAUGAGGAUCACCCAUGUAGUGCUUUAGCAGGAUAUGUGAGGAUCAAAUCCAUGGCAGAAGGGUUAUGGC [Inondiorbi] (puzzle: Same State 1) | 20.1 | 43 | 67.1 | – | – | –
AAUAUUAAUGCAGGAUAUGAUUAACAUGAGGAUCACCCAUGUGGUGUUGUGAGUAAGGAGAGUGAUCAGAAGGGCAUUUUUUUU [JMF's solution 36] (Eterna round: R96, puzzle: Same State NG 2) | – | – | – | 648 | 349 | 529
AAUUAAGAUCUAGGAUAUCACGUCGUUUAGACGUGAGAAGGAGAUCAUAACAUGAGGAUCACCCAUGUAUUACAUGAAUUAAUU [SSNG1/6-B3] (Eterna round: R96, puzzle: Same State NG 1) | – | – | – | 24.2 | 22.9 | 28.5
AAUUAAUUAAUUAAGUACAUGAGGAUCACCCAUGUAAGUGAUCAGGAUAUCAGCUCGAAUAGAGCUGAGAAGGGAUCCAUGUAC [SSNG3/15-A1] (Eterna round: R96, puzzle: Same State NG 3) | – | – | – | 332 | 322 | 375
AAUUAUUCACAUGAGGAUCACCCAUGUGAUAUUAUUAUUACAAGCUUUUUGCUCGUCUUGUUCCUCAGUGAAUAAUU [Default title] (puzzle: Sensor for hsa-mir-208a version 2) | 18.3 | 74.5 | 15.9 | – | – | –
AAUUAUUGACAUGAGGAUCACCCAUGUAAAGCAUGGAUUAACAAGCUACAAGCUUUUUGCUCGUCUUAUCCUAUAGG [Improved Bojan's design] (puzzle: Sensor for hsa-mir-208a version 2) | 55.9 | 34.6 | 58.1 | – | – | –
ACAAGACAUGAGGAUCACCCAUGUCCCAAUGACACAGGAUAUCGGUAGGCAUAGCCUACGCGAGAAGGGUGACUUC [Same State 1 - Mod of Vinnie Gere v.1] (puzzle: Same State 1) | 198 | 68.3 | 73 | – | – | –
ACAAGCUUUUCUGCAUCGAAAGGUUGAUAACAUGAGGAUCACCCAUGUAAAUAUGAAAACGAUGCUCCUCGUCUUAU [JR_SHM208A_Sub095] (puzzle: Sensor for hsa-mir-208a) | 37.3 | 15.1 | 44.7 | – | – | –
ACAAGCUUUUUGCUCAUCUUAUGUCCGAAACAUGAGGAUCACCCAUGUGUAGAUUAUGUGUUGUUUUUGAUACGAGA [JR_SHM208A_Sub065] (puzzle: Sensor for hsa-mir-208a) | 68.1 | 28.4 | 80.3 | – | – | –

Sequence | apparent KD of MS2 coat protein [1] [nM] | apparent KD of MS2 coat protein [2] [nM] | apparent KD of MS2 coat protein [3] [nM] | apparent KD of MS2 coat protein (input ligand: FMN 200 uM) [nM] | apparent KD of MS2 coat protein [4] [nM] | apparent KD of MS2 coat protein (input ligand: none) [nM]
ACACCACAUGAGGAUCACCCAUGUGUCAAUAACACAGGAUAUCACCCGGAAUACACCGGGUGAGAAGGGUGACCGA [Gesois] (puzzle: Same State 1) | 158 | 30.1 | 25.4 | – | – | –
ACAGAGGGAAGACAGGAUAUUCGCGAUGGCACAUGAGGAUCACCCAUGUUUUGAGCACAUAAACAGAAGAAGGGUUAAAACUCAG [Veceanve] (puzzle: Same State 2) | 21.4 | 132 | 215 | – | – | –
ACAUGAGAAGGAGGAUAUUUUGUACCUACAUGUGACAUGAGGAUCACCCAUGUGGUAAGUAUGAGAAAGAAGGCCUAGAUAUGU [Equivalence 15 - Jieux - Same State NG 2] (Eterna round: R96, puzzle: Same State NG 2) | – | – | – | 21.3 | 21 | 36.3
ACAUGAGACACAGGAUAUCAUGUACCUACAUGUGACAUGAGGAUCACCCAUGUGGUAAGUAUGACUGAGAAGGGUGAGAUAUGU [Equivalance 89 - Jieux - Same State NG 2] (Eterna round: R96, puzzle: Same State NG 2) | – | – | – | 369 | 394 | 962
ACAUGAGACCAAGGAUAUGUUGUACCUACAUGUGACAUGAGGAUCACCCAUGUGGUAAGUAUGAGACAGAAGGUGGAGAUAUGU [Equivalence 27 - Jieux - Same State NG 2] (Eterna round: R96, puzzle: Same State NG 2) | – | – | – | 16.9 | 44.3 | 33.2
ACAUGAGAGAAAGGAUAUCUUGUACCUACAUGUGACAUGAGGAUCACCCAUGUGGUAAGUAUGACAGAGAAGGUUCAGAUAUGU [Equivalance 71 - Jieux - Same State NG 2] (Eterna round: R96, puzzle: Same State NG 2) | – | – | – | 38.7 | 61.1 | 86.3
ACAUGAGGAUCACCCAUGUAUUUAUUUGAAUCUUAAGUUACGUAGGAUAUCGUGUAUACUAUCAUCGAGAAGGACGAUGUGAUA [JR_SSNG3_Sub068] (Eterna round: R96, puzzle: Same State NG 3) | – | – | – | – | 12.5 | –
ACCCAAAGUAUAUGGGAACAAGCUUUUUAACAUGAGGAUCACCCAUGUACUCGUCUUAUAAGCAGUCGAAAGACUGC [hsa-mir-208a sensor: 100] (Eterna round: R96, puzzle: Sensor for hsa-mir-208a) | – | – | – | 557 | 14.3 | 877
ACCCGCAGCCGUCAGGAUAUGUUCGCGUCAACAUGAGGAUCACCCAUGUGUGACAAGAAGUACACGCAGAAGGGAUCAAUGCGGG [Bienri] (Eterna round: R96, puzzle: Same State 2) | – | – | – | 13.4 | 11.7 | 17.8
ACCCGCGACGGAGGAUAUGGGCACUCGGCGGAAUAAACCGCCAUAACAUGAGGAUCACCCAUGUCCCAGAAGGCCGUCGCAAUC [Zaonesdive] (Eterna round: R96, puzzle: Same State NG 2) | – | – | – | 107 | 303 | 2620
ACGUGGAUAUCACAGGAUAUACUCAUAACUACAUGAGGAUCACCCAUGUAGCGGUAUUCCGAUGCGUAGAAGGGUGAUGGACCAC [Same State 2 - Mod of Artece v.2] (puzzle: Same State 2) | 13.9 | 14.9 | 17.4 | – | – | –
ACUAGAAACGGGCAAUAACACAUGAGGAUCACCCAUGUGACACAGGAUAUAACCAGAUCAGAAAGUUAGAAGGGUGAGCCCGCA [Edraed] (Eterna round: R96, puzzle: Same State NG 3) | – | – | – | 13.2 | 25.9 | 35
ACUUGCUUUUUGCUCAUCUUAUGUCCGAAACAUGAGGAUCACCCAUGUGUAGAUUAUGUGUUGUUUUUGAUACGUGA [JR_SHM208A_Sub066] (puzzle: Sensor for hsa-mir-208a) | 24.9 | 19 | 26.9 | – | – | –
AGAAAACAUGAGGAUCACCCAUGUAGAAAUAUGGGAGGAUAUACAAAGACGAAAGUCGAGGUAGAAGGCCUAAAGA [Mat - Same State 1 - Meechl mod - D122] (Eterna round: R96, puzzle: Same State 1) | – | – | – | – | 77.9 | –
AGAAAACAUGAGGAUCACCCAUGUAUAGUGAAUACAGGAUAUCACCAACGGAAUAGUCGGUGAGAAGGGUGAUCGC [Zaxelate] (puzzle: Same State 1) | 18.5 | 11.3 | 14.2 | – | – | –
